# Source: the MegaScale stability set (Tsuboyama et al. 2023)
# B1: EHEE_rd4_0726 (parent)
# chain: DIEITTNGEEDAKRVIKELQKRNLEYHIEVHGNQWVIKVR
# Variants of: B1
# Test: folding stability dG (cDNA display proteolysis); higher = more stable
# Conditions: PBS, room temperature
row,Variant,folding stability dG
1,DIEITTNGEEDAKRVIKELQKRRLEYHIEVHGNQWVIKVR,2.43 kcal/mol
2,DIEITTNGEEDAKRVIKELQKRDLEYHIEVHGNQWVIKVR,1.72 kcal/mol
3,DIEITTNGEEDAKRVIKELQKRILEYHIEVHGNQWVIKVR,0.939 kcal/mol
4,DIEITTNGEEDAKRVIKELQKRTLEYHIEVHGNQWVIKVR,1.2 kcal/mol
5,DIEITTNGEEDAKRVIKELQKRPLEYHIEVHGNQWVIKVR,0.565 kcal/mol
6,DIEITTNGEEDAKRVIKELQKRCLEYHIEVHGNQWVIKVR,1.79 kcal/mol
7,DIEITTNGEEDAKRVIKELQKRKLEYHIEVHGNQWVIKVR,2.42 kcal/mol
8,DIEITTNGEEDAKRVIKELQKRWLEYHIEVHGNQWVIKVR,1.51 kcal/mol
9,DIEITTNGEEDAKRVIKELQKRMLEYHIEVHGNQWVIKVR,2.13 kcal/mol
10,DIEITTNGEEDAKRVIKELQKRVLEYHIEVHGNQWVIKVR,1.09 kcal/mol
11,DIEITTNGEEDAKRVIKELQKRYLEYHIEVHGNQWVIKVR,1.67 kcal/mol
12,DIEITTNGEEDAKRVIKELQKRFLEYHIEVHGNQWVIKVR,1.92 kcal/mol
13,DIEITTNGEEDAKRVIKELQKRALEYHIEVHGNQWVIKVR,2.03 kcal/mol
14,DIEITTNGEEDAKRVIKELQKRQLEYHIEVHGNQWVIKVR,2.18 kcal/mol
15,DIEITTNGEEDAKRVIKELQKRGLEYHIEVHGNQWVIKVR,3.26 kcal/mol
16,DIEITTNGEEDAKRVIKELQKRSLEYHIEVHGNQWVIKVR,1.95 kcal/mol
17,DIEITTNGEEDAKRVIKELQKRLLEYHIEVHGNQWVIKVR,1.77 kcal/mol
18,DIEITTNGEEDAKRVIKELQKRHLEYHIEVHGNQWVIKVR,2.4 kcal/mol
19,DIEITTNGEEDAKRVIKELQKRELEYHIEVHGNQWVIKVR,1.66 kcal/mol
20,DIEITTNGEEDAKRVIKELMKRNLEYHIEVHGNQWVIKVR,2.4 kcal/mol
21,DIEITTNGEEDAKRVIKELKKRNLEYHIEVHGNQWVIKVR,2.49 kcal/mol

row,Variant,folding stability dG
1,DIEITTNGEEDAKRVIKELCKRNLEYHIEVHGNQWVIKVR,1.98 kcal/mol
2,DIEITTNGEEDAKRVIKELLKRNLEYHIEVHGNQWVIKVR,2.39 kcal/mol
3,DIEITTNGEEDAKRVIKELYKRNLEYHIEVHGNQWVIKVR,1.64 kcal/mol
4,DIEITTNGEEDAKRVIKELGKRNLEYHIEVHGNQWVIKVR,1.48 kcal/mol
5,DIEITTNGEEDAKRVIKELWKRNLEYHIEVHGNQWVIKVR,1.79 kcal/mol
6,DIEITTNGEEDAKRVIKELFKRNLEYHIEVHGNQWVIKVR,1.68 kcal/mol
7,DIEITTNGEEDAKRVIKELRKRNLEYHIEVHGNQWVIKVR,2.56 kcal/mol
8,DIEITTNGEEDAKRVIKELAKRNLEYHIEVHGNQWVIKVR,2.11 kcal/mol
9,DIEITTNGEEDAKRVIKELEKRNLEYHIEVHGNQWVIKVR,2.68 kcal/mol
10,DIEITTNGEEDAKRVIKELDKRNLEYHIEVHGNQWVIKVR,2.29 kcal/mol
11,DIEITTNGEEDAKRVIKELNKRNLEYHIEVHGNQWVIKVR,2.22 kcal/mol
12,DIEITTNGEEDAKRVIKELVKRNLEYHIEVHGNQWVIKVR,2.4 kcal/mol
13,DIEITTNGEEDAKRVIKELIKRNLEYHIEVHGNQWVIKVR,2.77 kcal/mol
14,DIEITTNGEEDAKRVIKELSKRNLEYHIEVHGNQWVIKVR,1.9 kcal/mol
15,DIEITTNGEEDAKRVIKELPKRNLEYHIEVHGNQWVIKVR,-0.448 kcal/mol
16,DIEITTNGEEDAKRVIKELTKRNLEYHIEVHGNQWVIKVR,2.17 kcal/mol
17,DIEITTNGEEDAKRVIKELHKRNLEYHIEVHGNQWVIKVR,1.85 kcal/mol
18,DIEITTNGEEDAKRVIKKLQKRNLEYHIEVHGNQWVIKVR,1.81 kcal/mol
19,DIEITTNGEEDAKRVIKTLQKRNLEYHIEVHGNQWVIKVR,1.95 kcal/mol
20,DIEITTNGEEDAKRVIKMLQKRNLEYHIEVHGNQWVIKVR,2.86 kcal/mol
21,DIEITTNGEEDAKRVIKNLQKRNLEYHIEVHGNQWVIKVR,1.86 kcal/mol

row,Variant,folding stability dG
1,DIEITTNGEEDAKRVIKPLQKRNLEYHIEVHGNQWVIKVR,-0.054 kcal/mol
2,DIEITTNGEEDAKRVIKRLQKRNLEYHIEVHGNQWVIKVR,2.01 kcal/mol
3,DIEITTNGEEDAKRVIKGLQKRNLEYHIEVHGNQWVIKVR,1.69 kcal/mol
4,DIEITTNGEEDAKRVIKSLQKRNLEYHIEVHGNQWVIKVR,2.04 kcal/mol
5,DIEITTNGEEDAKRVIKALQKRNLEYHIEVHGNQWVIKVR,2.43 kcal/mol
6,DIEITTNGEEDAKRVIKWLQKRNLEYHIEVHGNQWVIKVR,3.42 kcal/mol
7,DIEITTNGEEDAKRVIKHLQKRNLEYHIEVHGNQWVIKVR,2.02 kcal/mol
8,DIEITTNGEEDAKRVIKCLQKRNLEYHIEVHGNQWVIKVR,3.47 kcal/mol
9,DIEITTNGEEDAKRVIKFLQKRNLEYHIEVHGNQWVIKVR,2.73 kcal/mol
10,DIEITTNGEEDAKRVIKDLQKRNLEYHIEVHGNQWVIKVR,1.84 kcal/mol
11,DIEITTNGEEDAKRVIKVLQKRNLEYHIEVHGNQWVIKVR,2.32 kcal/mol
12,DIEITTNGEEDAKRVIKLLQKRNLEYHIEVHGNQWVIKVR,2.65 kcal/mol
13,DIEITTNGEEDAKRVIKQLQKRNLEYHIEVHGNQWVIKVR,2.19 kcal/mol
14,DIEITTNGEEDAKRVIKILQKRNLEYHIEVHGNQWVIKVR,2.68 kcal/mol
15,DIEITTNGEEDAKRVIKYLQKRNLEYHIEVHGNQWVIKVR,2.87 kcal/mol
16,DIEITTNGEEDAKRVIKELQKRNEEYHIEVHGNQWVIKVR,1.01 kcal/mol
17,DIEITTNGEEDAKRVIKELQKRNDEYHIEVHGNQWVIKVR,0.415 kcal/mol
18,DIEITTNGEEDAKRVIKELQKRNGEYHIEVHGNQWVIKVR,0.458 kcal/mol
19,DIEITTNGEEDAKRVIKELQKRNHEYHIEVHGNQWVIKVR,1.13 kcal/mol
20,DIEITTNGEEDAKRVIKELQKRNIEYHIEVHGNQWVIKVR,2.46 kcal/mol
